US20230035798A1 (CAPELLA BIOSCIENCE, published 2023)

T1: recombinant human soluble LIGHT, amino acids 74-240 (R&D Systems 664-LI-025) (human, UniProt O43557 74-240)
T1 construct: range 74-240; also called 74-240 LIGHT; Soluble LIGHT 74-240
T1 chain: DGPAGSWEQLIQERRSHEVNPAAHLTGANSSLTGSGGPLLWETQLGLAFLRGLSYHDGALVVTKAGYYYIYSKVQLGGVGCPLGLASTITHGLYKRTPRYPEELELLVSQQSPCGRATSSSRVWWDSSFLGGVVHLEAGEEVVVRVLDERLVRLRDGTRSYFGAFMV


Experiments:
[1] = molecular target: T2, human LIGHT (TNFSF14), full length, membrane-bound (214E allele) (human, UniProt O43557 1-240); assay: flow cytometry, maximum signal compared with F19 and F23
T2 construct: also called membrane LIGHT; human membrane LIGHT
Target sequence in this assay (O43557 whole entry K214E): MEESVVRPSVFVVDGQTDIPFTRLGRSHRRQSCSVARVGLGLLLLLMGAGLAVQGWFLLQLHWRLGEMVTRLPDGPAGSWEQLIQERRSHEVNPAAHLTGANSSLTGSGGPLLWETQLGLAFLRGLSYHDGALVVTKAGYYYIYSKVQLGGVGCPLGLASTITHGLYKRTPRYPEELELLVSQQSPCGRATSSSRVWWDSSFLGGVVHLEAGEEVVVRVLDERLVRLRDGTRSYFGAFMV

[2] = molecular target: T2, human LIGHT (TNFSF14), full length, …; assay: DcR3-His (1 nM) competition, EL4-LIGHT, flow cytometry; 1.23 nM
Method: EL4-LIGHT cells (0.25×10⁶) were preincubated with anti-membrane LIGHT mAbs (0-300 nM) for 15 min at 4° C. followed by incubation with DcR3-His tagged (1 nM, Creative BioMart; ref: TNFRSF6B-552H, lot: 962512) for 30 min at 4° C. The samples were then incubated with mouse anti-histag antibody (diluted 1:500, Biolegend, cat. no. 652502) for 30 minutes at 4° C., followed by incubation with anti-mouse APC (dil 1:500, BDBiosciences, cat. no. 550826) for 30 minutes at 4° C. The tubes were washed three times after each of the detection antibody stages and flow cytometry analysis was performed. Specific mean fluorescence intensity (MFI) obtained from the binding of DcR3-His to LIGHT on EL4 cells were used to determine the levels of competition binding.
In humans, LIGHT is neutralized by DcR3, a unique soluble member of the TNFR superfamily, which tightly binds LIGHT (both soluble and membrane forms) and inhibits its interactions with HVEM and LTβR. A major binding determinant for DcR3 neutralization is the region T170-E178 on LIGHT (Liu et al. Structure 2014: 9; 1252-1262). […] In contrast the anti-LIGHT mAb F19, (from EP2292663) which binds both soluble LIGHT and membrane LIGHT equally well completely displaces DcR3 from binding to membrane LIGHT highlighting a surprising an important functional difference between the anti-membrane LIGHT mAbs of this invention and other neutralizing anti-LIGHT mAbs that have been raised against or screened against soluble LIGHT.
Target sequence in this assay (O43557 whole entry K214E): as above

[3] = molecular target: T2, human LIGHT (TNFSF14), full length, …; assay: membrane LIGHT on cells, as for Table 9
Target sequence in this assay (O43557 whole entry K214E): as above

[4] = molecular target: T1, recombinant human soluble LIGHT, amino …; assay: SPR (BIAcore), as for Table 9
Method: (§1) Real-time binding interactions between captured antibody (chimeric anti-membrane LIGHT monoclonal antibody) captured on a biosensor matrix via goat anti-human Fe IgG and recombinant soluble LIGHT were measured by surface plasmon resonance (SPR) using the BIAcore system (GE Healthcare) according to manufacturer's instructions and standard procedures. Briefly, soluble LIGHT was diluted in HBS running buffer (GE Healthcare) and aliquots were injected through the immobilized protein matrices at a flow rate of […]. BIAevaluation software was used to calculate association rate (ka), dissociation rate (kd) and affinity (KD).
The specificity of further anti-membrane LIGHT mAbs to soluble LIGHT was determined by using the same BIAcore analysis discussed above which was used to generate the data in Table 9. In brief, mAbs 3B04, 3D12, 3A07, 3C10 and 2B11 were compared to various prior art antibodies, (F19 and F23 IgG4 mAbs from EP2292663 and 1C02, 13H04 and 31A10 mAbs from WO2015/107331).

[5] = molecular target: T2, human LIGHT (TNFSF14), full length, …; assay: soluble LIGHT 74-240 KD over membrane LIGHT KD
Target sequence in this assay (O43557 whole entry K214E): as above

[6] = molecular target: T2, human LIGHT (TNFSF14), full length, …; assay: flow cytometry, EL4-LIGHT cells, maximum signal compared with F19 and F23
Description: FIG. 7 depicts the flow cytometry analysis of the anti-membrane LIGHT mAbs (3B04 and 3D12) binding to LIGHT stably expressed on EL4 cells. The maximum signal of the IgG4 mAbs 3B04 and 3D12 binding to membrane LIGHT is approximately 40000 MFI. In contrast anti-LIGHT mAbs F19 and F23 (IgG4 mAbs from EP2292663) gave a maximal signal of approximately 120000 MFI. The ratio of binding of mAb F19 and mAb F23 is approximately 3 times that of the anti-membrane LIGHT mAbs 3B04 and 3D12. […] Other mAbs of this invention; 2E08, 3A07, 3C10, 3E09 and 2B11 also bind LIGHT in a 1:1 ratio when compared to mAbs F19 and F23 by flow cytometry.

[7] = molecular target: T3, soluble LIGHT, amino acids 64-240 (Abcam ab82123) (UniProt O43557 64-240); assay: SPR (BIAcore), mAb captured on anti-human Fc, soluble LIGHT in flow
T3 construct: range 64-240; bought protein; also called 64-240 LIGHT; Soluble LIGHT 64-240
Method: as §1
(§2) The specificity of two lead anti-membrane LIGHT mAbs to soluble LIGHT was determined by BIAcore analysis and compared to the KD calculated from the EC50 values in Table 7 (results in Table 9). In brief, mAbs 3D12, 3B04 were compared to a mAb that binds both soluble and membrane LIGHT, F19, (F19 IgG4 mAb from EP2292663). An irrelevant anti-HEL mAb, 2A11, was used as a negative control. The mAbs were captured on an anti-human Fc mAb coated chip and soluble LIGHT was passed over the surface and the kinetic parameters were calculated using BIAcore 3000 software. The soluble LIGHT preparations used were amino acids 74-240 LIGHT (R&D Systems, 664-LI-025) and 64-240 LIGHT (Abcam, ab82123).

[8] = molecular target: T1, recombinant human soluble LIGHT, amino …; assay: as above
Method: as §1, §2

Row | Binder | binding ratio, mAb per LIGHT trimer [1] [mAb per LIGHT trimer] | DcR3-His binding, % of irrelevant mAb [2] [%] | Kd [3] [nM] | Kd [4] [nM] | Membrane:soluble LIGHT affinity ratio [5] | binding ratio, mAb per LIGHT trimer [6] [mAb per LIGHT trimer] | Kd [7] [nM] | koff [7] [s⁻¹] | kon [7] [M⁻¹ s⁻¹] | Kd [8] [nM] | koff [8] [s⁻¹] | kon [8] [M⁻¹ s⁻¹]
1 | 2E08 (antibody, human IgG4, V domains shown, chimeric human IgG4 (S-to-P, L-to-E at 248), human CL; also called Parental 2E08) VH: QVQMKESGAELVRPGVSVKISCKGSGYTFTDYAIHWVKQSHAKTLEWIGVISTYYGDASYNQKFKGKATMTVDKSSSTAYMELARLTSDDSAIYYCARSRGEYGNYDAMDYWGQGTSVTVSS VL: DIVLTQSPASLAVSLGQRATISCKASQSVDYDGDSYMNWYQQKPGQPPKLLIYAASNLESGIPARFSGSGSGTDFTLNIHPVEEEDAATYYCQQSNEDPLTFGAGTKLELK | 1 | 118 |  |  |  |  |  |  |  |  |  | 
2 | 3A07 (antibody, human IgG4, V domains shown, chimeric human IgG4 (S-to-P, L-to-E at 248), human CL; also called Parental 3A07) VH: QVQLQQSGAELVRPGAPVTLSCKASDYTFTDSEIHWVKQTPVHGLEWIGEIDPETGGTAYNQKFKGKATLTADKSSSTAYMELRSLTSEDSAVYYCSRETDYFFDYWGQGTTLTVSS VL: ENVLTQSPAIMSASPGEKVTMTCSASSSVSYMYWYQQRPGSSPRLLIYDTSNLASGVPVRFSGSGSGTSYSLTISRMEAEDAATYYCQQWSSYPLTFGSGTKLEIK | 1 | 90.6 | 0.15 | 15.8 | 105 |  |  |  |  |  |  | 
3 | 3C10 (antibody, human IgG4, V domains shown, chimeric human IgG4 (S-to-P, L-to-E at 248), human CL; also called Parental 3C10) VH: EVQLQQSGAELVRPGASVTLSCKASDYTFTDSEIHWVKQTPVHGLEWIGEIDPETGGTAYNQKFKGKATLTADKSSSTAYMELRSLTSEDSAVYYCSRETDYFFDYWGQGTTLTVSS VL: DVVMTQTPAIMSASPGEKVTMTCSASSSVSYMYWYQQKPGSSPRLLIYDTSNLASGVPVRFSGSGSGTSYSLTISRMEAEDAATYYCQQWSSYPLTFGAGTKLELK | 1 | 95.5 | 0.18 | 11 | 61.1 |  |  |  |  |  |  | 
4 | 2B11 (antibody, human IgG4, V domains shown, chimeric human IgG4 (S-to-P, L-to-E at 248), human CL; also called Parental 2B11) VH: EVQLVESGAELVRPGVSVKISCKGSGYTFTDYAIHWVKQSHAKSLEWIGVISTYYGDASYNQKFKGKATMTVDKSSSTAYMELARLTSEDSAIYYCARSRGEYGNYDAMDYWGQGTSVTVSS VL: DIVLTQSPASLAVSLGQRATISCRASESVDSYGNSFMHWYQQKPGQPPKLLIYRASNLESGIPARFSGSGSRTDFTLTINPVEADDVATYYCQQSNEDPYTFGGGTKLEIK | 1 | 115 | 0.34 | 16 | 47.1 |  |  |  |  |  |  | 
5 | 3B04 (antibody, human IgG4, V domains shown, chimeric: mouse variable domains on human IgG4 HC (S-to-P and L-to-E at 248) and human CL; also called Parental 3B04; 3B04 chimeric) VH: QVQLQQPGAELVRPGASVTLSCKASGYTFTDYEMHWVKQTPVHGLEWIGEIDPETGDTAYSQKFKGKATLTADKSSSTAYMEFRSLTSEDSAVYYCSRETDYFFDYWGQGTTLTVSS VL: DIQMTQTPASLSASVGETVTITCGASENIYGALNWYQRKQGKSPQLLIYGATNLADGMSSRFSGSGSGRQYSLKISSLHPDDFATYYCQNVLTTPWTFGGGTKLEIKR |  | 75.1 | 0.21 | 11.1 | 52.9 | 1 | 13.8 | 0.00345 | 251000 | 15.7 | 0.00348 | 222000
6 | 3D12 (antibody, human IgG4, V domains shown, chimeric: mouse variable domains on human IgG4 HC (S-to-P and L-to-E at 248) and human CL; also called Parental 3D12; 3D12 chimeric) VH: QVQLQQPGAELVRPGASVTLSCKASDYTFTDSEIHWVKQTPVHGLEWIGEIDPETGGTAYNQKFKGKATLTADKSSSTAYMELRSLTSEDSAVYYCSRETDYFFDYWGQGTTLTVSS VL: DIQMTQSPASLSASVGETVTITCGASENIYGALNWYQRKQGKSPQLLIYGATNLADGMSSRFSGSGSGRQYSLKISSLHPDDVATYYCQNVLSTPWTFGGGTKLEIKR |  | 72.8 | 0.19 | 3.6 | 18.9 | 1 | 10.7 | 0.00234 | 219000 | 14 | 0.00235 | 168000
7 | 3E09 (antibody, V domains shown, chimeric human IgG4 (S-to-P, L-to-E at 248), human CL; also called Parental 3E09) VH: EVQLVESGGGLVKPGGSLKLSCEASGFTFSDYYMYWVRQTPEKRLEWVAAIGDGGIYTYYADTVKGRFTISRDNAKNILYLQMSSLKSNDTAMYYCARGTGDGFAYWGQGTLVTVS VL: DIVLTQSPASLAVSLGQRATISCRASESVDSYGNSFMHWYQQKPGQPPKLLIYLASNLESGVPARFSGSGSRTDFTLTIDPVEADDAATYYCQQNNEDPYTFGGGTKLEIK | 1 | 66.9 |  |  |  |  |  |  |  |  |  | 
